Results: article PMC6097615 (Developmental cell, 2010)

B1: Fbx4G (Fbx4 GTPase domain, residues 162–387) (domain or fragment, human, UniProt Q9UKT5 162-387, looked up)
chain: GAVTSFLHSLIIQNEPRFAMFGPGLEELNTSLVLSLMSSEELCPTAGLPQRQIDGIGSGVNFQLNNQHKFNILILYSTTRKERDRAREEHTSAVNKMFSRHNEGDDQQGSRYSVIPQIQKVCEVVDGFIYVANAEAHKRHEWQDEFSHIMAMTDPAFGSSGRPLLVLSCISQGDVKRMPCFYLAHELHLNLLNHPWLVQDTEAETLTGFLNGIEWILEEVESKRAR
B2: TRF1_(TRFH) (TRFH domain of TRF1, residues 58–268), GST tag removed (domain or fragment, human, UniProt P54274 58-268, looked up)
chain: EEEEEDAGLVAEAEAVAAGWMLDFLCLSLCRAFRDGRSEDFRRTRNSAEAIIHGLSSLTACQLRTIYICQFLTRIAAGKTLDAQFENDERITPLESALMIWGSIEKEHDKLHEEIQNLIKIQAIAVCMENGNFKEAEEVFERIFGDPNSHMPFKSKLLMIISQKDTFHSFFQHFSYNHMMEKIKSYVNYVLSEKSSTFLMKAAAKVVESKR

Legend:
[1] = target: B2; experiment: crystal structure
crystal structure = target: the molecule itself; experiment: crystal structure
[2] = target: B1; experiment: pull-down

B1
stoichiometry N [1]: 1 Fbx4G per TRF1_TRFH (printed as 2:2)

B2
binding result (crystal structure): binds

B3: GST-TRF1_(TRFH) (domain or fragment, human, UniProt P54274 58-268, looked up)
chain: EEEEEDAGLVAEAEAVAAGWMLDFLCLSLCRAFRDGRSEDFRRTRNSAEAIIHGLSSLTACQLRTIYICQFLTRIAAGKTLDAQFENDERITPLESALMIWGSIEKEHDKLHEEIQNLIKIQAIAVCMENGNFKEAEEVFERIFGDPNSHMPFKSKLLMIISQKDTFHSFFQHFSYNHMMEKIKSYVNYVLSEKSSTFLMKAAAKVVESKR
binding result [2]: binds
